{"source": "paper PMC6764986", "binders": {"B1": {"name": "NbALFA (non-tagged) (VHH)", "VHH": "EVQLQESGGGLVQPGGSLRLSCTASGVTISALNAMAMGWYRQAPGERRVMVAAVSERGNAMYRESVQGRFTVTRDFTNKMVSLQMDNLKPEDTAVYYCHVLEDRVDSFHDYWGQGTQVTVSS"}}, "biological_target": "ALFA-tagged target immobilized for SPR (TST-NEDD8-ALFA or GFP-ALFA)", "assay": "SPR; ALFA-tagged ligand (TST-NEDD8-ALFA or GFP-ALFA) coupled by EDC-NHS to HC1000m chip; NbALFA as analyte; 20 °C, 40 µL/min, PBS with 0.002% Tween-20 pH 7.4; dissociation followed for > 7 h"}
{"binder": "B1", "values": [{"measurement": "Kd", "value": 0.026, "unit": "nM"}]}
